The results in this text go back to the DeepSol protein solubility set.

The data set can be described thus: soluble on expression in E. coli; label from the status in PepcDB or PDB records.
As for “MSLNESEEKNSNSTYSFFFKNLSVTGFYEENCLFMTVKELFDNSIDALCNNKGDENIDEEGQGTQEKKIEIEIKEYGINSSFYEIICRDNGEGIEVKDLEKISEMFLTSKEKCITSGKFGIGLKTILLYSFKTAYGFLHIKIKVKKNKIWDFILVLDKNLNHTFVQNFKEYIDDKWEWTIEISVILKINNNYISDKKIHSYIKLFLLWKKNITVKYIHNPNGEQSIYTYSSHSDTSEENILSMLANNSINMIFKKDFLTSYNYDVNMYVNVRKSEKIIPYEHGHNIGFLFLIRYVNSMPLLRTSSSDCSITVDFRNFLKYYGPQFGIELPTIESRDEMILEELALPSCFDDLNKVANIFPVKRSEEGHHHHHH”, the “soluble on expression in E. coli” value is “soluble”.
Regarding “MGSDKIHHHHHHMDIGHRMKELRIQYGLTQQELADRAELTKGFISQLERNQNSPSVGTLLDIIQCLGMTPAEFFTDSEPEQIVYKANDYFEKIDEEKNSKVEWIIPNAQTRSMEPVRLTLHPGGSSEIYLPQECEEFGYVIKGTVKLCYGGKVHTVKAGESFYFKAGKKHFIENKSSKDAMLIWVSNPPSF”, the “soluble on expression in E. coli” value was “not soluble”.
The result for “MGSDKIHHHHHHMRPVDKGKDLGSFKPYNKACAPLQDRLGEYCSYCERWIAAAIEVEHILPKKANPSQKYRWSNFLLACKNCNTGKGSDQIIVTDYLWPDLDNTFLAFCYDDEGRAYPNPRLPPAILEKAKATWTLTNLNWHPDTTFTGMVAPSEKDHRHSHRKQAWIYASDKRNQLLQYDTPDRRVSVAKDALQRGMFSVWMTVFNTTSELDREIRRLLIENFVGTATNCFDRLGNAHRSSTGQI” reads “not soluble”.
In the case of “GMSNQKHIDKIQAVIKDVKFAMISTSNKKGDIHAWPMTTSEVNLDNKEIWFIGDKTSDVVKDIQDDARIGLTYATQDEKNYVSISGDAELPTDKAKLDELWSPVYSAFFANGKEDANIQLIKVVPHGVECWLSG” it was “soluble”; in that of “MERNDIINFKALEKELQAALTADEKYKRENAAKLRAVEQRVASYEEFRGIVLASHLKPLERKDKMGGKRTVPWNCHTIQGRTFQDVATEISPEKAPLQPETSADFYRDWRRHLPSGPERYQALLQLGGPRLGCLFQTDVGFGLLGELLVALADHVGPADRAAVLGILCSLASTGRFTLNLSLLSRAERESCKGLFQKLQAMGNPRSVKEGLSWEEQGLEEQSGGLQEEERLLQELLELYQVD”, “soluble”.
The result for “MPSSRRVRSRCCAFGITKRFACIRPACQRARMDAQMTNFETRLRENAAKTEALLGHLLSGEARADEITRPQNLLEAMRHGVLNGGKRLRPFLVIESVALLGGDAEAGLHVGAALECLHCYSLVHDDLPAMDDDDLRRGQPTVHRKFDEATAILAGDSLLTLAFDIIASDDNPLAAERKAALVISLARAAGIGGMAGGQALDLAAEKKAPDEDGIITLQAMKTGALLRFACEAGAIIAGSNQAERQRLRLFGEKIGLSFQLADDLLDLTADAATMGKATGKDAARGKGTLVALRGEAWAREKLQE” reads “soluble”; that for “MSYLIRVQIPDEPGSLGRVAEAVGLIGGNISSVDVVEAFSNGTVTDDMVVELPAGTMADELITAAHEVEGVEVDSIRPFSGRVDRRGQ”, “soluble”; that for “MGSDKIHHHHHHMGLLYRETYEVPFYESDTNHYMKLPQLLALALQISAKQSLKLGIGDDIVFKRYGLVWVVTDYIIDIERLPKHAEKIVIETEAKAHNKLLCYRYFYIYGEDGQKIITISSAFVLMDFKTRKIHPVLDDITSIYQSQRIKKVIRGPKYHPIGDSKVKQYHVRYFDLDMNGHVNNSKYLEWMYDVLDLDFLSSHIPKKIDLKYIKEIQYGTDIKSHWYQDGLVTRHDIIGGDAIHAQARIEWQEKKED”, “not soluble”.
For the sequence “MGSDKIHHHHHHNDDDDKYYYPTNFENLSLPNDTIIAKGEDLTLKPTLNLINPKIYSWKIDGKEVSNEVNYTFSTSVGGKHEIIFEAQDSKGNTDKAQITVDVFAYYGGFYVINEGWAGHDPASVNYYKDGKWNFNIVESLGQTGTVGVIQDSYMYIVAKDAPYLTQIELANFNITKQLSTEIEEQLDYGQANSFCTINETTGILTASRGAYKINLNPLSIGNMLPQLNSESANGNGCKDILKSGDYVFVNNMDTIKIYKSSDLSFVKKLTALMKTGFAQTKDGNIWAANGQSLIKIDPKTLDETTVELPDNINVFYNQWAYTPTGLCASTTENALYIVNTTVVPGAYGDSYYGKNIYKYNTESKIAQEFFKAPSKIQSIYGAGIQVNPQNGDVYLIYTEDGYGTHYLNTNIYVADGQSGTQKQIIDYTGKYWFPSSIVFK”, the “soluble on expression in E. coli” value is “not soluble”.
